Results from patent publication US20240132589A1 (ONCORESPONSE, published 2024).

Assays:
[1] = biological target: T1, Human LILRA1 on transiently transfected HEK293-6E cells (human, UniProt O75019 17-489); experiment: flow cytometry, transiently transfected HEK293-6E cells
T1 construct: whole, on cells; also called hLILRA1

[2] = biological target: T2, Human LILRA2 on transiently transfected HEK293-6E cells (human, UniProt Q8N149 24-483); experiment: as above
T2 construct: whole, on cells; also called hLILRA2

[3] = biological target: T3, Human LILRA4 on transiently transfected HEK293-6E cells (human, UniProt P59901 24-499); experiment: as above
T3 construct: whole, on cells; also called hLILRA4

[4] = biological target: T4, Human LILRA5 on transiently transfected HEK293-6E cells (human, UniProt A6NI73 42-299); experiment: as above
T4 construct: whole, on cells; also called hLILRA5

[5] = biological target: T5, Human LILRA6 on transiently transfected HEK293-6E cells (human, UniProt Q6PI73 24-481); experiment: as above
T5 construct: whole, on cells; also called hLILRA6

[6] = biological target: T6, Human LILRB1 on transiently transfected HEK293-6E cells (human, UniProt Q8NHL6 24-650); experiment: as above
T6 construct: whole, on cells; also called hLILRB1

[7] = biological target: T7, Human LILRB3 on transiently transfected HEK293-6E cells (human, UniProt O75022 24-631); experiment: as above
T7 construct: whole, on cells; also called hLILRB3

[8] = biological target: T8, Human LILRB4 on transiently transfected HEK293-6E cells (human, UniProt Q8NHJ6 22-448); experiment: as above
T8 construct: whole, on cells; also called hLILRB4

[9] = biological target: T9, Human LILRB5 on transiently transfected HEK293-6E cells (human, UniProt O75023 24-590); experiment: as above
T9 construct: whole, on cells; also called hLILRB5

[10] = biological target: T10, Human LILRB2 on transiently transfected HEK293-6E cells (human, UniProt Q8N423 22-597); experiment: as above
T10 construct: whole, on cells; also called hLILRB2
Protocol: (§1) To determine that the anti-LILRB2 antibodies specifically bind to LILRB2 and not other LILRB and LILRA family members, a cross-reactivity assay was performed. Cross-reactivity of the LILRB2 antibodies to other LILRB proteins was assessed by antibody binding to transiently transfected HEK293-6E cells, measured by flow cytometry. Binding was evaluated to HEK293-6E cells transiently transfected with human LILRB-1, -2, -3, -4, and 5 plasmids (Origene, Nos. RC219949, RC217935, RC211228, RC220932, RC206516) or to cells transiently transfected with human LILRA-1, -2, -4, -5, and -6 plasmids (Origene, Nos. RC210808, RC205626, RC220452, RC212310 RC212965). […] Murine primary antibodies to LILRA and LILRB targets and corresponding isotype controls were used to confirm specific binding of all targets tested (R&D Systems) while an AF647 F(ab′)₂ fragment goat anti-mouse antibody (Jackson ImmunoResearch, No. 115-606-062) was used for the detection of bound positive control antibodies. No binding of B2A-IgG4 or B2A-IgG1 to LILRB-1, -3, -4, or -5 was observed, and no binding of either antibody to LILRA-1, -2, -4, -5, or -6 was observed, confirming specificity of these antibodies.

[11] = biological target: T1, Human LILRA1 on transiently transfected …; experiment: as above; remark: listed apart in the source
Protocol: as §1

[12] = biological target: T2, Human LILRA2 on transiently transfected …; experiment: as above; remark: listed apart in the source
Protocol: as §1

[13] = biological target: T3, Human LILRA4 on transiently transfected …; experiment: as above; remark: listed apart in the source
Protocol: as §1

[14] = biological target: T4, Human LILRA5 on transiently transfected …; experiment: as above; remark: listed apart in the source
Protocol: as §1

[15] = biological target: T5, Human LILRA6 on transiently transfected …; experiment: as above; remark: listed apart in the source
Protocol: as §1

[16] = biological target: T7, Human LILRB3 on transiently transfected …; experiment: as above; remark: listed apart in the source
Protocol: as §1

[17] = biological target: T8, Human LILRB4 on transiently transfected …; experiment: as above; remark: listed apart in the source
Protocol: as §1

[18] = biological target: T9, Human LILRB5 on transiently transfected …; experiment: as above; remark: listed apart in the source
Protocol: as §1

[19] = biological target: T8, Human LILRB4 on transiently transfected …; experiment: as above; remark: listed apart in the source
Protocol: as §1
Select humanized variant antibodies were tested for their ability to bind other LILRB or LILRA family members, using the method and commercially available positive control antibodies of Example 5.

[20] = biological target: T11, Human LILRB2 on stably transduced HEK293T cells (human, UniProt Q8N423 22-597); experiment: flow cytometry, HEK293T cells stably expressing human LILRB2
T11 construct: Lentiviral transduction (G&P Biosciences LTV2992); also called HEK293T-LILRB2; LILRB2-expressing HEK293T cells
Protocol: To confirm binding of LILRB2 antibodies, flow cytometry binding assays were performed using HEK293T cells stably expressing human LILRB2 (Example 3). […] The B2A-IgG1 and B2A-IgG4 chimeras bound the LILRB2-expressing HEK293T cells, with equivalent EC₅₀ values of 0.21 nM and 0.30 nM respectively.

T9 sequence (O75023 24-590): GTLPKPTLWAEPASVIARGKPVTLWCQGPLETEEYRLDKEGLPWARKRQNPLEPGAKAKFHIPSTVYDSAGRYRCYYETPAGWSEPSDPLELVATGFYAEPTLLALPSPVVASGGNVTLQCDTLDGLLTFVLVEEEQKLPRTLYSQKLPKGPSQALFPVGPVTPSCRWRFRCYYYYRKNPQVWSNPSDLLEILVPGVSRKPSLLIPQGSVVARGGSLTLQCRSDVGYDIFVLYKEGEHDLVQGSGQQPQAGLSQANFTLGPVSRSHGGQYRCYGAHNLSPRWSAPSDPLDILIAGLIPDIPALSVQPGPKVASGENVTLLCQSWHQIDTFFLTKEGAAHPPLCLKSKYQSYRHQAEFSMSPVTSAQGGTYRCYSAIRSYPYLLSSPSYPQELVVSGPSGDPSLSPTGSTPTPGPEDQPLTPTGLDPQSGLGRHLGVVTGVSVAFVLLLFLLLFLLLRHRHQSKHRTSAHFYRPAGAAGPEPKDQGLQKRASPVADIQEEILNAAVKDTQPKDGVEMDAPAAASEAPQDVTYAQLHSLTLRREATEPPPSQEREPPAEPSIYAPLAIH
T4 sequence (A6NI73 42-299): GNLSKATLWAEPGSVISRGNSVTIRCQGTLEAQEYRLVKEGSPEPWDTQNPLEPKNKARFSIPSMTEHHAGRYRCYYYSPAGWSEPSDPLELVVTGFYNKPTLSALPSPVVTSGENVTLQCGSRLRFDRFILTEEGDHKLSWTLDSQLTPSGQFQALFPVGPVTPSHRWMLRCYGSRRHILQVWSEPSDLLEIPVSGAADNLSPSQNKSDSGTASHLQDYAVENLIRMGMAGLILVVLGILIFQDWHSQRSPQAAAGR
T1 sequence (O75019 17-489): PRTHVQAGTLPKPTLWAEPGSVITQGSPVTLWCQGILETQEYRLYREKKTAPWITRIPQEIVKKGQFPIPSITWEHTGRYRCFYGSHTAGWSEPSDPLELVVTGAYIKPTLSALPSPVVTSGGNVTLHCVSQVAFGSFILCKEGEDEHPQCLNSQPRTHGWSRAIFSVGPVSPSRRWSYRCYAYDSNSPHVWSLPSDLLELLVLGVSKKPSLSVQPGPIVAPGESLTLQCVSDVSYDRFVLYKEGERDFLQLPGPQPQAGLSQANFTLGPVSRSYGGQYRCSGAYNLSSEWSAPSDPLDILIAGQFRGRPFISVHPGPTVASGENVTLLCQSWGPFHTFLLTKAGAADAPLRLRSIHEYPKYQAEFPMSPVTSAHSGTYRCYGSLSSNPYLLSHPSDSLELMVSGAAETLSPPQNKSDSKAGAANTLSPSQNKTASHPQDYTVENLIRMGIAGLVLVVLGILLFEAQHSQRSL
T2 sequence (Q8N149 24-483): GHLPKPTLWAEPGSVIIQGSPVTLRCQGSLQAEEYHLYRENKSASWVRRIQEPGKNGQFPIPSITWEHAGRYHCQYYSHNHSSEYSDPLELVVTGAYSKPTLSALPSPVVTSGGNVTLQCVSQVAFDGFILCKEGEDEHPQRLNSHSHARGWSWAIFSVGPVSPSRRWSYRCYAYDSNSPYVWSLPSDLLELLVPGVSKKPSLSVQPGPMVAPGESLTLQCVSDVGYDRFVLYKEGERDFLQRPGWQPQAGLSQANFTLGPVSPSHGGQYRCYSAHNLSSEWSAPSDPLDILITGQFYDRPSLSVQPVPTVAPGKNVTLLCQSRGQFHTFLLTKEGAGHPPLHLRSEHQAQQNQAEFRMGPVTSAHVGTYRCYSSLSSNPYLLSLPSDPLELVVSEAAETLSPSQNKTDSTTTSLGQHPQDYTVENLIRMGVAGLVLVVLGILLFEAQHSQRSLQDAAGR
T6 sequence (Q8NHL6 24-650): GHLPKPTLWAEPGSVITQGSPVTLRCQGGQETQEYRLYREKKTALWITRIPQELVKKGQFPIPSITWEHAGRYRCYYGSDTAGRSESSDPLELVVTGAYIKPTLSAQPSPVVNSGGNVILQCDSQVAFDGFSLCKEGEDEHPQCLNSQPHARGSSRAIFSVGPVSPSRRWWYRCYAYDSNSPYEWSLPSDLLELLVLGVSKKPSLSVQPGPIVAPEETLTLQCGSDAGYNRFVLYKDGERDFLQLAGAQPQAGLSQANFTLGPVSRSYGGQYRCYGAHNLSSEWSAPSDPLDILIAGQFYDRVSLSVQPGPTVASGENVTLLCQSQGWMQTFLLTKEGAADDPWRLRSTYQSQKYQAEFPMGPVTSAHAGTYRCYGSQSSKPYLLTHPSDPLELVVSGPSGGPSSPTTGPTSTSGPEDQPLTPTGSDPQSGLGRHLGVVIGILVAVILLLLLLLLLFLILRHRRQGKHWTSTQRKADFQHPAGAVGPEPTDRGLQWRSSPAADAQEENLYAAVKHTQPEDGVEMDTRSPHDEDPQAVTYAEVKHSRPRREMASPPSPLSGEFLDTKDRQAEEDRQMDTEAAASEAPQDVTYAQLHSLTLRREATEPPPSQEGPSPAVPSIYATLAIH
T5 sequence (Q6PI73 24-481): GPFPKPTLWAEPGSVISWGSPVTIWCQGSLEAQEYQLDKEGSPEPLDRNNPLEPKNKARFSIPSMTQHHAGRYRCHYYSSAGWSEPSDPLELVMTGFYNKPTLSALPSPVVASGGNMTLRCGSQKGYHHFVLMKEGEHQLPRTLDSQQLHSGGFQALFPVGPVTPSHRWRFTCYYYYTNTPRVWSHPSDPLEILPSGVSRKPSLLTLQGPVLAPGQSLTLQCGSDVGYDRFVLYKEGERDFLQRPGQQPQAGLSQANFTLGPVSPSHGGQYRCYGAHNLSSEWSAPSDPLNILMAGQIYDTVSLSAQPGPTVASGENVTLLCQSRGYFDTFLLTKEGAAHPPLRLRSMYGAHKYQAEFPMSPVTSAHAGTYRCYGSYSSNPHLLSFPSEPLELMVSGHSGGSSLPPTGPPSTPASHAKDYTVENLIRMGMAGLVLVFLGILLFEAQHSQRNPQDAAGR
T3 sequence (P59901 24-499): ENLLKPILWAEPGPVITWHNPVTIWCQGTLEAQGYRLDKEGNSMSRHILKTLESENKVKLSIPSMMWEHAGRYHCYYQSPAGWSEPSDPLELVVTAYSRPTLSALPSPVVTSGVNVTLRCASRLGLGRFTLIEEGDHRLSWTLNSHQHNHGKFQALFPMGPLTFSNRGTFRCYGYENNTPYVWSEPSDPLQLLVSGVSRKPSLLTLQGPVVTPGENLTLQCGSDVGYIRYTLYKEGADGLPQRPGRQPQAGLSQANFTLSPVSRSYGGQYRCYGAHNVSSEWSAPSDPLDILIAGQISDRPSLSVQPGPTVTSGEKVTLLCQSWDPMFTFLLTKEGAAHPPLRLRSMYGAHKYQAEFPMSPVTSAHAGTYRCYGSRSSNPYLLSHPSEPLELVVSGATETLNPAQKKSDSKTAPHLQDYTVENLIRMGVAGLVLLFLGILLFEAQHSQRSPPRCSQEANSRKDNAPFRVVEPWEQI
T11 sequence (Q8N423 other isoform, or with tags, fused parts or gaps limits assumed): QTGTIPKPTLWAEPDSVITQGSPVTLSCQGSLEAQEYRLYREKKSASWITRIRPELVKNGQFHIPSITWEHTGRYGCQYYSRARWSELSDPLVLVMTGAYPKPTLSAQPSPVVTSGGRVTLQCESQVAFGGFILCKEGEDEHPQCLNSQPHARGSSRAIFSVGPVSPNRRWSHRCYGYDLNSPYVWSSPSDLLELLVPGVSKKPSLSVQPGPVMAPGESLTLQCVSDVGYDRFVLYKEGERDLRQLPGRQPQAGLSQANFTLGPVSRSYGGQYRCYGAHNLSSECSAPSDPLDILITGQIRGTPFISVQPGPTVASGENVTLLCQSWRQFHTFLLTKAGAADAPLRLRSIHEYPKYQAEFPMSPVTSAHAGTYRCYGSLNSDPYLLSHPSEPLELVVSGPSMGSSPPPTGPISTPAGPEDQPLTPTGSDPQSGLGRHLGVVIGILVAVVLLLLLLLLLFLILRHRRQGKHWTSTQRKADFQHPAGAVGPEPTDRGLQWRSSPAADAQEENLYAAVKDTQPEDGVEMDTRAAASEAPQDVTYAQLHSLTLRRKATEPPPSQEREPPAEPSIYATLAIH
T10 sequence (Q8N423 22-597): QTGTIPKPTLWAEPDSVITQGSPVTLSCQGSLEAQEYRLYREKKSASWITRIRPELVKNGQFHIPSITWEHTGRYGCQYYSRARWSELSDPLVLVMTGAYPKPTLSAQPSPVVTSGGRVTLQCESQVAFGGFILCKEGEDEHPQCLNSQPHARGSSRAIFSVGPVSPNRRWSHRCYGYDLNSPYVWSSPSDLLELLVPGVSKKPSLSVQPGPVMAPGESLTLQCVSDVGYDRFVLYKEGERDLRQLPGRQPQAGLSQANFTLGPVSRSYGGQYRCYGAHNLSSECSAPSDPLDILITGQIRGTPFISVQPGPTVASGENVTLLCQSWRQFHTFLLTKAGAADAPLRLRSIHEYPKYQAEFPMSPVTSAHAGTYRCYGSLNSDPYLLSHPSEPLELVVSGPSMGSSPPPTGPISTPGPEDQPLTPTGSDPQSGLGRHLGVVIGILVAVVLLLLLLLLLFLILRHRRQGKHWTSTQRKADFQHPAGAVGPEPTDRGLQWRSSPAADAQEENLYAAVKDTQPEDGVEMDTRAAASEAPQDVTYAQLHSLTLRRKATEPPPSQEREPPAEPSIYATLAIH

B1: B2A-IgG1 (antibody)
heavy: not shown
light: DVVMTQTPSSVSAALGGTVTIKCQASQSIGSNLAWYQLKPGQRPKLLIYAAATLASGGSSRFKGSGSGTDFTLTISDLECADAATYYCQSYVSGSSDVAFGGGTEVVVKRTVAAPSVFIFPPSDEQLKSGTASVVCLLNNFYPREAKVQWKVDNALQSGNSQESVTEQDSKDSTYSLSSTLTLSKADYEKHKVYACEVTHQGLSSPVTKSFNRGEC
notes: Rabbit variable regions on human IgG1 / kappa constant regions; AF647-conjugated in some flow assays; also called B2A-IgG1 chimera; anti-LILRB2 B2A-IgG1
B1: no binding [1]; no binding [2]; no binding [3]. B1: no binding [4]; no binding [5]; no binding [6]. B1: no binding [7]; no binding [8]; no binding [9]. For the same binder, the MFI [10] was 11300 MFI, the MFI [11] was 898 MFI and the MFI [12] was 38 MFI. It also gave an MFI [13] of 116 MFI, an MFI [14] of 127 MFI and an MFI [15] of 223 MFI. The MFI [16] was 163 MFI, the MFI [17] was 40 MFI and the MFI [18] was 147 MFI. For the same binder, the “Bmax (MFI)” value [19] was 41.4 MFI and the EC50 [20] was 0.21 nM.

B2: B2A-IgG4 (antibody)
heavy: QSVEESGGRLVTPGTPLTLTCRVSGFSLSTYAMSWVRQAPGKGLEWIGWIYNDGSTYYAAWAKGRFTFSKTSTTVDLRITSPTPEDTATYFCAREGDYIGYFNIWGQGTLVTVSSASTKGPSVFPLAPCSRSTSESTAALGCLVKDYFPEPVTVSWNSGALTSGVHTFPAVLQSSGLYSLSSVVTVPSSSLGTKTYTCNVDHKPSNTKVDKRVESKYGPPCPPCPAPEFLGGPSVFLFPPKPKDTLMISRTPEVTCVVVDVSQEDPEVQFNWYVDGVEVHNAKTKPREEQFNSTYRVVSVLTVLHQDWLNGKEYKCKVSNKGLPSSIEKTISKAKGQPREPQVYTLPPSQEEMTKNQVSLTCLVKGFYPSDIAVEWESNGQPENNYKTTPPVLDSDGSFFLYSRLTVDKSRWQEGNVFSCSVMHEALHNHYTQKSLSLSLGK
light: DVVMTQTPSSVSAALGGTVTIKCQASQSIGSNLAWYQLKPGQRPKLLIYAAATLASGGSSRFKGSGSGTDFTLTISDLECADAATYYCQSYVSGSSDVAFGGGTEVVVKRTVAAPSVFIFPPSDEQLKSGTASVVCLLNNFYPREAKVQWKVDNALQSGNSQESVTEQDSKDSTYSLSSTLTLSKADYEKHKVYACEVTHQGLSSPVTKSFNRGEC
notes: Rabbit variable regions on human IgG4 / kappa constant regions; also called B2A-IgG4 chimera; Parent B2A-IgG4
B2: no binding [1]; no binding [2]; no binding [3]. B2: no binding [4]; no binding [5]; no binding [6]. B2: no binding [7]; no binding [8]; no binding [9]. It also gave an MFI [10] of 1160 MFI, an MFI [11] of 73 MFI and an MFI [12] of 31 MFI. For the same binder, the MFI [13] was 30 MFI, the MFI [14] was 21 MFI and the MFI [15] was 22 MFI. The MFI [16] was 22 MFI, the MFI [17] was 20 MFI and the MFI [18] was 21 MFI. It also gave an EC50 [20] of 0.3 nM.

B3: B2H1-55 (antibody, V domains shown)
VH: EVQLLESGGGLVQPGTSLTLSCAASGFSLSTYAMSWVRQAPGKGLEWIGWIYNDGSTYYAAWAKGRFTISKDTSKTTLYLQITSLRAEDTATYFCAREGDYIGYFNIWGQGTLVTVSS
VL: DVVMTQTPSSVSAALGGTVTIKCQASQSIGSNLAWYQLKPGQRPKLLIYAAATLASGGSSRFKGSGSGTDFTLTISSLEPADAATYYCQSYVSGSSDVAFGGGTEVVVK
notes: Humanized variant, human IgG1 / kappa; also called humanized variant B2H1-55; humanized LILRB2 antibody B2H1-55
B3: no binding [1]; no binding [2]; no binding [3]. B3: no binding [4]; no binding [5]; no binding [6]. B3: no binding [7]; no binding [8]; no binding [9]. The “Bmax (MFI)” value [19] was 40.3 MFI.
